Data taken from the nanobody polyreactivity screen of Harvey et al. (2022).

Experiment: yeast display, Sf9 membrane polyspecificity reagent, FACS + sequencing; frameworks hold sequencing errors
Method in brief: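 A nanobody's polyreactivity label depends on the gate it was sorted from. Yeast display cells were stained with 10% biotinylated, detergent-solubilized Sf9 membrane reagent for 1 hour at 4 °C, enriched on streptavidin microbeads and sorted by FACS. The low and high (top ~1%) gates were set on anti-HA fluorescence for expression and streptavidin fluorescence for reagent binding.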

Sequence | polyreactivity (PSR sort gate)
QVQLVESGGGLVQAGGSLRLSCAASGSTFPFYAMGWYRQAPGKERELVAAITASVGNTYYADSVKGRFTISRDNAKNTVYLQMNSLKPEDTAVYYCNADEWYTYIPDFDYWGQGTQVTVSS | low polyreactivity
QVQLVESGGGLVQAGGSLRLSCAASGSTFPGNAMGGSRQAAGKERELVASISGGGDSTYYADSVKGRFTISRDNAKNTVYLQMNSRKPEDTAVYYCAADYRQEPGYTGYYYWGQGTQVTVSS | low polyreactivity
QVQLVESGGGLVQAGGSLRLSCAASGSTFPGNAMGGYRQAPGKERELVAAINWSGDSTYYADSVKGRFTISRDNAKNTVYLQMNSLKPEDTAVYYCAAYGDGYYYWGQGTQVTVSS | low polyreactivity
QVQLVESGGGLVQAGGSLRLSCAASGSTFPGNAMGWYRQAPGKERELVAAIRDRGTSTYYADSVKGRFTISRDNAKNTVYLQMNSLNPEDTAVYYCAARSFTADLGYYWGQGTQVTVSS | high polyreactivity
QVQLVESGGGLVQAGGSLRLSCAASGSTFPGYAMGWYRQAPGKDRELVAAISKRGGSTRYADSVKGRFTISRDKAKNTVYLQMNSLKPEDTAVYYCNAVYTKRYKYYYTSGYWGQGTQVTVSS | high polyreactivity
QVQLVESGGGLVQAGGSLRLSCAASGSTFPGYAMGWYRQAPGKERELVAAISWSGGNTYYADSVKGRFTISRDNAKNTVYLQMNSLKPEDTAVYYCNAAGRRYKFDYWGQGTQVSVSS | high polyreactivity
QVQLVESGGGLVQAGGSLRLSCAASGSTFPGYAMGWYRQAPGKERELVASITSSGDNTYYADSVKGRFTISRDNAKNSVYLQMNSLKPEDTAVYYCAAPTKYRSRRYYWGQGTQVTVSS | high polyreactivity
QVQLVESGGGLVQAGGSLRLSCAASGSTFPHNPMGCYRQAPGKERELVAAISSIGVRTYYADSVKGRFTISRDNAKNTVYLQMNSLKPEDTAVYYCAARQSQGDRYYYWGHGTQVTVSS | high polyreactivity
QVQLVESGGGLVQAGGSLRLSCAASGSTFPKNAMGWYRQAPGKERELVAAINTGGSTYYADSVKGRFTISLDNAKYTVYLQMNSLKPEDTAVYYCAARDNYHRDVGHPYDYWGQGTQVTVSS | low polyreactivity
QVQLVESGGGLVQAGGSLRLSCAASGSTFPKNVMGWYRQAPGKERELVAAINYSGTSTYYADSVKGRFTISRDNAKNTVYLQMNSLKPEDTAVYYCAARFPLVRYNYWGQGTQVTVSS | high polyreactivity
QVQLVESGGGLVQAGGSLRLSCAASGSTFPKYAMGWYRQAPGKERELVASISVTTGSTYYADSVKGRFTISRDNAKNTVYLQMNSLKPEDTAVYYCAVGRTVAHRFIAGDYWGQGTQVTVSS | high polyreactivity
QVQLVESGGGLVQAGGSLRLSCAASGSTFPLNAMAWYRHAPGKERELVAAITWSGANTYYADSVKGRFTISRDNAKNTVYLQMNSLKPEDTAVYYCAAGSYAGFAVIGYYYWGQGTQVTVSS | low polyreactivity
QVQLVESGGGLVQAGGSLRLSCAASGSTFPLYAMGRYRQAPGKERELVAAITSGGGNTYYADSLKGRFTISRDNAKNTVYLQMNSLKPEDTAVYYCAAVGGYKSYYSYEYDYWGQGTQVTVSS | low polyreactivity
QVQLVESGGGLVQAGGSLRLSCAASGSTFPLYAMGWYRQAPGKERELVAAITTGGGNTYYADSVKGRFTISRDNAKNTVYLQLNSLTPEDTAVYYCAKPYHIGLSGRRTYDYWGQGTQVTVSS | high polyreactivity
QVQLVESGGGLVQAGGSLRLSCAASGSTFPPNAMGWYRQAPGKERELVAAISASGGRTYYADSVKGRFTISRDNAKNTVYLQMNSLKPEDTAVYYCNARGGRYGRGSSDQLDYYWGQGTQVTVSS | high polyreactivity
QVQLVESGGGLVQAGGSLRLSCAASGSTFPPNAMGWYRQAPGKERELVADSSDSSTYYADSVKGRFTISRDNAKNTVYLQMNSLKPEDTAVYYCAAADAGLRSKSYGQQYDYWGQGTQVTVSS | low polyreactivity
QVQLVESGGGLVQAGGSLRLSCAASGSTFPPYAMGWYRQAPGKERELVAAISWSGSGSTYYADSVKGRFTISRDNAKNTVYLQMNSLKPEDTAVYYCAAGYVRVITPAYYYWGQGTQVTVSS | low polyreactivity
QVQLVESGGGLVQAGGSLRLSCAASGSTFPPYVIGWYRPAPGKERELVAAITWSSGSTYYADSVKGRFTISRDNAKNTVYLQMNSLKPEDTAVYYCAARAYRWGQGTQVTVSS | low polyreactivity
QVQLVESGGGLVQAGGSLRLSCAASGSTFPPYVMGWYRQAPGKERELVAAISRGGGSTYYADSVKGRFTISRDNAKNTVYLQMNSLKPEDTAVYYCAAKNVYHDDYWGQGTQVTVSS | high polyreactivity
QVQLVESGGGLVQAGGSLRLSCAASGSTFPQNDMGWYRQAPGKERELVAAITRSAGSTYYADSVKGRFTISRDNAKNTVYLQMNSLKPEDTAVYYCNTGRQRGDGWGQGTQVTVSS | high polyreactivity
QVQLVESGGGLVQAGGSLRLSCAASGSTFPQNVMGWYRQAPGKERELVAAITRSAGSTYYADSVKGRFTISRDNAKNTVYLQMNSLKPEDTADYYCNTGRQRGDCWGQGTQVTVSS | high polyreactivity

Sequence | polyreactivity (PSR sort gate)
QVQLVESGGGLVQAGGSLRLSCAASGSTFPQYAMGWYRQAPGKERELVAAISARGDSTSYADSVKGRFTISRDNAKNTVYLQMNSLKPEDTAVYYCNAPSRNGFSVTDTPDGYDYWGQGTQVTVSS | low polyreactivity
QVQLVESGGGLVQAGGSLRLSCAASGSTFPRNDMGWYRQAPGKERELVAAISRGGSTNYADSVKGRFTISRDNAKNTVYLQMNSLKPEDTAVYYCAAQIFECAYGMDYWGQGTQVTVSS | low polyreactivity
QVQLVESGGGLVQAGGSLRLSCAASGSTFPRNDMGWYRQAPGKERELVAAISRGGSTNYADSVKGRFTISRDNAKNTVYLQMNSLKPEDTAVYYCAAQIIESAYGMDYWGQGTQVTVSS | low polyreactivity
QVQLVESGGGLVQAGGSLRLSCAASGSTFPRYAMGWFRQAPGKEREFVAAISRRGGSTYYADSVKGRFTISRDNAKNTVYLQMNSLKPEDTAVYYCANRVRTGSVGNFNYWGQGTQVTVSS | high polyreactivity
QVQLVESGGGLVQAGGSLRLSCAASGSTFPRYAMGWYRPAPGKERELVAAISSSGRTYYADSVKGRFTISRDNAKNTVYLQMNSLNPEDTAVYYCNAPVARGEASYYWGQGTQVTVSS | high polyreactivity
QVQLVESGGGLVQAGGSLRLSCAASGSTFPRYAMGWYRQAPGKERELVATITSGGSTYYADSVKGCFTISRDNAKNTFYLQMNSLKPEDTAVYYCAAGYRWTYTSGTYIRYNYWGQVTQVTVSS | high polyreactivity
QVQLVESGGGLVQAGGSLRLSCAASGSTFPSNAMGWYRQAPGKERELVAAISSGGRTYYADSVKGRFTISRDNAKNTVYLQMKSLKPEDTAVYYCAADTDRRSPFDYWGQGTQVTVSS | high polyreactivity
QVQLVESGGGLVQAGGSLRLSCAASGSTFPSYAMGGYRPAPGKERELVAAINRSGGSTYYADSVKGRFTISRDNAKNTVYLQMNSLKPEDTAVYYCATGLTTGGGYYWGQGTQVTVSS | high polyreactivity
QVQLVESGGGLVQAGGSLRLSCAASGSTFPSYAMGWYRQAPGKERELVAAITRSGGRTYYADSVKGRFTISRDNAKNTVYLQMNSLKPEDTAVYYCAADLGRNYDYWGQGTQVTVLS | low polyreactivity
QVQLVESGGGLVQAGGSLRLSCAASGSTFPTNAMGWYRQAPGKERELVAAISQRGDSTSYADSVKGRFTISRDNAKNTVYLQMNSLKPEDTAVYYCAARPLYSYSQWGYGYWGQGTQVTVSS | high polyreactivity
QVQLVESGGGLVQAGGSLRLSCAASGSTFPTNTMGWYRQAPGKERELVAAITGGGSTYYADSVKGRFTISRDNAKNTVYLQMNSLKPEDTAVYYCAADDSWFYYGYGYWGQGTQVTVSS | low polyreactivity
QVQLVESGGGLVQAGGSLRLSCAASGSTFPTYAMGWYRQAPGKERELVAAISFSGARTYYADSVKGRFTISRDNAKNTVYLQMNSLKPEDTAVYYCAKASSYSRRYEYWGQGTQVTVSS | high polyreactivity
QVQLVESGGGLVQAGGSLRLSCAASGSTFPVYAMGWYRQAPGKERELVAAISWRGDSTYYADSVKGRFTISRDNAKNTVYLQMNSLKPEDTAVYYCAASTGSVVRRYYYWGQGTQVTVSS | high polyreactivity
QVQLVESGGGLVQAGGSLRLSCAASGSTFPVYAMGWYRQAPGKERELVARISSGSSTNYADSVKGRFTNSRDKAKNTVYLQMNSLKPEDTAVSYCAAQTPRFVWQKGPLDSEEYWGQGTQVTVSS | high polyreactivity
QVQLVESGGGLVQAGGSLRLSCAASGSTFPVYDMGWYRQAPGKERELVAAITAGVSTNYADSVKGRFTISRDNAKNTVYLQMNSQKPEDTAVYYCAKDFGLLPIRDDYWGQGTQETVSS | low polyreactivity
QVQLVESGGGLVQAGGSLRLSCAASGSTFPVYVMGWYRQAPGKERELVATITIVVSTKYADSVKGRFTISRDNAKNTVYLQMNSLKPEDTAVYYCAKDDVYRDSYLVFDGEMDYWGQGTQVTVSS | low polyreactivity
QVQLVESGGGLVQAGGSLRLSCAASGSTFPWNAMGWHRQAPGKERELVAAISKSGGRTYYADSVKGRFTISRDNAKNTVYLQMNSLRPEDTAVYYCNALGSLDGRYGYWGQGTQVTVSS | high polyreactivity
QVQLVESGGGLVQAGGSLRLSCAASGSTFPWNAMGWYRQAPGKERELVAAISSGGSTNYADSVKGRFTISRDNAKNTVYLQMNSLKPEDTAVYYCNAYYWSDSRGKYDYWGQGTQVTVSS | low polyreactivity
QVQLVESGGGLVQAGGSLRLSCAASGSTFPYNAMGWYRQAPGKERELVAAITSAGGTNYADSVKGRFTISRDNAKNTVYLQMNSLKPEDTAVYYCAADGSGYYDWYYYWGQGTQVTVSS | low polyreactivity
QVQLVESGGGLVQAGGSLRLSCAASGSTFPYNAMGWYRQAPGKERELVAVITTVGSTYYADSVKGRFTISRDNAKNTVYLQMNSLKPEDTAVYYCAAANTQSPGYDYWGQGTQVTVSS | low polyreactivity
